Target: mouse IL-12 receptor on cells (mouse) (UniProt Q60837)
Assay: cell-based or functional assay

Sequence of mouse IL-12 receptor on cells (mouse) (Q60837 20-738, chain 1 of 2): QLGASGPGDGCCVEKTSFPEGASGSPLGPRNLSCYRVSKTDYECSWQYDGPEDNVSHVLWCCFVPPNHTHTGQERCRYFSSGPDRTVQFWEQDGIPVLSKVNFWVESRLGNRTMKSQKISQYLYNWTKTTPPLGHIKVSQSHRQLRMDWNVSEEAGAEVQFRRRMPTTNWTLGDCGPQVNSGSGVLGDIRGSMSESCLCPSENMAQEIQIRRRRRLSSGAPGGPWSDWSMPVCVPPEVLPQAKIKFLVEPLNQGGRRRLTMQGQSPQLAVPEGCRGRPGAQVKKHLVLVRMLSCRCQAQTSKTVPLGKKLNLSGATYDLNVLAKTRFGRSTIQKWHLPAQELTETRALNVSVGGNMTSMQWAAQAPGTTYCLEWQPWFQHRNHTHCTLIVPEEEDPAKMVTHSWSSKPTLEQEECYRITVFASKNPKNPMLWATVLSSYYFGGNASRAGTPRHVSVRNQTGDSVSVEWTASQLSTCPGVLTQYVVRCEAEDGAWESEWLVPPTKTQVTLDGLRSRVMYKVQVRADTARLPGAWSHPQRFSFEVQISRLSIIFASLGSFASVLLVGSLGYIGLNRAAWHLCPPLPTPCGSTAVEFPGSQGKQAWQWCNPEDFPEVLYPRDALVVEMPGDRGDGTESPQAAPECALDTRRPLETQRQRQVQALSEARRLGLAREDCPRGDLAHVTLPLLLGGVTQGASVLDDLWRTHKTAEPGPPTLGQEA
Sequence of mouse IL-12 receptor on cells (mouse) (P97378 24-874, chain 2 of 2, further chain): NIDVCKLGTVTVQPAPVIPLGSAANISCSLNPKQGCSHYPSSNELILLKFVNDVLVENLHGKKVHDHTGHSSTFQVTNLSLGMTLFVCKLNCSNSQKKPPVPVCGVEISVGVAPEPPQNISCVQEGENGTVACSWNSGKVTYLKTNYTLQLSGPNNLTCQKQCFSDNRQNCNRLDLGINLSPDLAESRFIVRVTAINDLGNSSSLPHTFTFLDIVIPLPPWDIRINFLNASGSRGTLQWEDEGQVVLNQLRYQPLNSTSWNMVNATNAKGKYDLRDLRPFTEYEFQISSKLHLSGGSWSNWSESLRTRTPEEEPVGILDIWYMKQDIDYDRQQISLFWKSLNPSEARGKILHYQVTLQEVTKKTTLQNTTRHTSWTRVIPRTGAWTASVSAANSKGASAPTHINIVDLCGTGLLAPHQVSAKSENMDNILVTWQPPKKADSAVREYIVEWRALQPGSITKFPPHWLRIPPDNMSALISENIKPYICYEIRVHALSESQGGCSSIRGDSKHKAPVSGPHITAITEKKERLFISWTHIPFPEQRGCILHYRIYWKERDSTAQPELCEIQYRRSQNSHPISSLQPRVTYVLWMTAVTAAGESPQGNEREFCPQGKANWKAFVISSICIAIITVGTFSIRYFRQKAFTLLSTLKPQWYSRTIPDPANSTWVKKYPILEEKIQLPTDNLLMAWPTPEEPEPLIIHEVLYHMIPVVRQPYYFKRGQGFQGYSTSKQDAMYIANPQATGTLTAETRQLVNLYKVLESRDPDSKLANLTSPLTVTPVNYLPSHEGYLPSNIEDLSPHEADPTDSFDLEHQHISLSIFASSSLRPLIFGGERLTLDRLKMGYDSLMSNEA

- Reduction in pSTAT4 production of 2) mutein IL-12 fused to isotype mAb as compared to 1) wild-type IL12 fused to isotype mAb (activated mouse CD4 T cells, flow cytometry): 23200 fold
B1: mIL12 mutein-isotype (mouse IL-12 mutein fused to a human isotype (IgG1) control antibody) (protein, part only; not given: isotype control antibody, part only)
chain: MWELEKDVYVVEVDWTPDAPGETVNLTCDTPEEDDITWTSDQRHGVIGSGKTLTITVKEFLDAGQYTCHKGGETLSHSHLLLHKKENGIWSTEILKNFKNKTFLKCEAPNYSGRFTCSWLVQRNMDLKFNIKSSSSSPDSRAVTCGMASLSAEKVTLDQRDYEKYSVSCQEDVTCPTAEETLPIELALEARQQNKYENYSTSFFIRDIIKPDPPKNLQMKPLKNSQVEVSWEYPDSWSTPHSYFSLKFFVGGGEKMKETEEGCNQKGAFLVEKTSTEVQCKGGNVCVQAQDRYYNSSCSKWACVPCRVRSGGGGGGSRVIPVSGPARCLSQSRNLLKTTDDMVKTAREKLEFYPCTAEDIDHEDITRDQTSTLKTCLPLELHKNESCLATRETSSTTRGSCLPPQKTSLMMTLCLGSIYEDLKMYQTEFQAINAALQNHNHQQIILDKGMLVAIDELMQSLNHNGETLRQKPPVGEADPYRVKMKLCILLHAFSTRVVTINRVMGYLSSA

From patent US20240010696A1
